The values that follow come from publication PMC6004577.

For this assay, the target named is Acanthamoeba castellanii actin (amoeba actin), filaments (Acanthamoeba castellanii).

mDelFCΔ20, mDelFC lacking the last 20 residues, sequence (Q0QWG9 805-1183, stated change not applied): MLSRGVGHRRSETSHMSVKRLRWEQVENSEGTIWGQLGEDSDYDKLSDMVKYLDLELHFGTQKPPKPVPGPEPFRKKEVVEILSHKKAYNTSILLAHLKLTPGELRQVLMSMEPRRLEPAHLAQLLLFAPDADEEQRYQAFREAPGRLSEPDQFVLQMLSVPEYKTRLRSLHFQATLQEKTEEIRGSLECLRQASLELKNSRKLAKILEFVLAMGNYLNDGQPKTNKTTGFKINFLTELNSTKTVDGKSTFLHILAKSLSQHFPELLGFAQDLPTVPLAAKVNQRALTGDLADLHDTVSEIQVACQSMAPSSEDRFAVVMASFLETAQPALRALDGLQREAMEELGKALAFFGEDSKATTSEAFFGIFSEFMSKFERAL

Take “mDelFCΔ20, mDelFC lacking the last 20 residues (from UniProt Q0QWG9-2 626-1004) (domain or fragment)”: the inhibition of barbed-end elongation in seeded elongation assays was determined as 7 nM.
